Here are results for one molecule from patent publication US20210054016, “Enzymatic RNA Capping Method” (NEW ENGLAND BIOLABS, INC., published 2021).

In this data set the target is Vaccinia capping enzyme (VCE) (Vaccinia virus, UniProt P04298;P04318 P04298:1-844,P04318:1-287). Description: Cap50, 37 C, 30 min, 500 nM RNA, 1 mM MgCl2; 0.94 at 45 C, 4.08 at 50 C, 30.00 at 55 C.

B1: RNA1 (ssRNA)
RNA: GUAGAACUUCGUCGAGUACGCUCAA
modifications: 5' triphosphate
The molecule B1 showed a concentration for a half-maximal effect (EC50) of 3.06 nM.
